Assay results reported in paper PMC8795524.

T1: SAMD9 134-385 (Homo sapiens, UniProt Q5K651 134-385)
T1 sequence: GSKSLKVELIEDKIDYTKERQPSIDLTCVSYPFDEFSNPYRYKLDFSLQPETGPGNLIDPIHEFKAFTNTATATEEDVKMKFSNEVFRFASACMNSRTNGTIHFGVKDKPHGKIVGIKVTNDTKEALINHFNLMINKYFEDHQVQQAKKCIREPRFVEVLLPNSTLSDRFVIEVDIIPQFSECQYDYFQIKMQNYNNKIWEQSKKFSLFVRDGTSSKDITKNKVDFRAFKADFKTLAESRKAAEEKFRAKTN

T2: SAMD9 134-385 K198E (Homo sapiens, UniProt Q5K651 134-385, K198E)
T2 sequence: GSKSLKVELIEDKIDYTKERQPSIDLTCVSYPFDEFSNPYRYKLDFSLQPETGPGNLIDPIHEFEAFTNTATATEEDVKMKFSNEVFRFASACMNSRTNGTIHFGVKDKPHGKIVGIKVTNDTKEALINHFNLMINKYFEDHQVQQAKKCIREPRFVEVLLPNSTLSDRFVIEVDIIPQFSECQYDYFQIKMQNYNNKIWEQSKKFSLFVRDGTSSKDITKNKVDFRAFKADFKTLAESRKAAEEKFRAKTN

T3: SAMD9 134-385 K257E (Homo sapiens, UniProt Q5K651 134-385, K257E)
T3 sequence: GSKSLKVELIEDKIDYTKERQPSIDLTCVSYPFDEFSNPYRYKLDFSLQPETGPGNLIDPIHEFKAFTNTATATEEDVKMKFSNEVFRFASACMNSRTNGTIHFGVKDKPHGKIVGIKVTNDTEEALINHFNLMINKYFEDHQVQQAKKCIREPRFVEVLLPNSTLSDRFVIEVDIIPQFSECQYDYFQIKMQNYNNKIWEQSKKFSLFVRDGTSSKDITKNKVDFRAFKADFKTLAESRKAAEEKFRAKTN

T4: SAMD9 134-385 R221E (Homo sapiens, UniProt Q5K651 134-385, R221E)
T4 sequence: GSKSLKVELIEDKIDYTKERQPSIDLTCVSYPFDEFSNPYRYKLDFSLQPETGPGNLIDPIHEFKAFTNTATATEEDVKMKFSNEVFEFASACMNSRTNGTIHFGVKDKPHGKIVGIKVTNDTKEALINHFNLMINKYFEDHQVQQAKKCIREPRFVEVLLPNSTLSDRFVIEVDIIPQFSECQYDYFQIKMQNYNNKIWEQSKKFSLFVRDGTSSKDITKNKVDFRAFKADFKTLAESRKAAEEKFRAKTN


What was measured:
Assay in all cases: EMSA
SAMD9 134-385 = target: T1, SAMD9 134-385
SAMD9 134-385 K198E = target: T2, SAMD9 134-385 K198E
SAMD9 134-385 K257E = target: T3, SAMD9 134-385 K257E
SAMD9 134-385 R221E = target: T4, SAMD9 134-385 R221E

Binder | binding result (SAMD9 134-385) | binding result (SAMD9 134-385 K198E) | binding result (SAMD9 134-385 K257E) | binding result (SAMD9 134-385 R221E)
11-nt dsDNA (dsDNA) DNA 1: GAGAAAGAGAG DNA 2: CTCTCTTTCTC | no binding | – | – | –
5' 6-FAM 22-nt dsDNA (dsDNA) DNA 1: GCAAATTAATGATTTATTCAAG DNA 2: CTTGAATAAATCATTAATTTGC | – | no binding | binds | no binding
